Experimental data taken from patent publication US20190093159.

Experiments:
[1] = tested on: H3Kac5-containing nucleosomes (H3 K9/14/18/23/27ac)
nucleosomes with H4K12ac = nucleosomes with H4K12ac (UniProt P62805)
wt nucleosomes = wt nucleosomes (UniProt P62805)
[2] = molecular target: H4Kac5-containing nucleosomes (H4 K5/8/12/16/20ac) (UniProt P62805)

recombinant full-length human p300
H4 acetylation (α-H4K5ac pulldown) compared to wt [1]: 6-fold increase compared to wt | H3 acetylation (α-H3K18ac pulldown) (nucleosomes with H4K12ac): This effect was dependent on the exact position of the mark within the tail and was most pronounced for H4K12ac | pulldown efficiency with α-H4K5ac antibody (% input) (nucleosomes with H4K12ac): 4.4% input | pulldown with α-H3K18ac antibody (% input), with AcCoA (wt nucleosomes): an increase in pulldown from 0.3% to about 4% input | pulldown with α-H3K18ac antibody (% input), without AcCoA (wt nucleosomes): an increase in pulldown from 0.3% to about 4% input | pulldown with α-H4K5ac antibody (% input), with AcCoA (wt nucleosomes): 0.5 to 0.9% input | pulldown with α-H4K5ac antibody (% input), without AcCoA (wt nucleosomes): 0.5 to 0.9% input | H3 acetylation (α-H3K18ac pulldown) compared to wt [2]: 13-fold compared to wt
